# Measured values taken from PMC8634136 (The EMBO Journal, 2021).
# B1: AND‐1 (natural protein, human)
# chain: MPATRKPMRYGHTEGHTEVCFDDSGSFIVTCGSDGDVRIWEDLDDDDPKFINVGEKAYSCALKSGKLVTAVSNNTIQVHTFPEGVPDGILTRFTTNANHVVFNGDGTKIAAGSSDFLVKIVDVMDSSQQKTFRGHDAPVLSLSFDPKDIFLASASCDGSVRVWQISDQTCAISWPLLQKCNDVINAKSICRLAWQPKSGKLLAIPVEKSVKLYRRESWSHQFDLSDNFISQTLNIVTWSPCGQYLAAGSINGLIIVWNVETKDCMERVKHEKGYAICGLAWHPTCGRISYTDAEGNLGLLENVCDPSGKTSSSKVSSRVEKDYNDLFDGDDMSNAGDFLNDNAVEIPSFSKGIINDDEDDEDLMMASGRPRQRSHILEDDENSVDISMLKTGSSLLKEEEEDGQEGSIHNLPLVTSQRPFYDGPMPTPRQKPFQSGSTPLHLTHRFMVWNSIGIIRCYNDEQDNAIDVEFHDTSIHHATHLSNTLNYTIADLSHEAILLACESTDELASKLHCLHFSSWDSSKEWIIDLPQNEDIEAICLGQGWAAAATSALLLRLFTIGGVQKEVFSLAGPVVSMAGHGEQLFIVYHRGTGFDGDQCLGVQLLELGKKKKQILHGDPLPLTRKSYLAWIGFSAEGTPCYVDSEGIVRMLNRGLGNTWTPICNTREHCKGKSDHYWVVGIHENPQQLRCIPCKGSRFPPTLPRPAVAILSFKLPYCQIATEKGQMEEQFWRSVIFHNHLDYLAKNGYEYEESTKNQATKEQQELLMKMLALSCKLEREFRCVELADLMTQNAVNLAIKYASRSRKLILAQKLSELAVEKAAELTATQVEEEEEEEDFRKKLNAGYSNTATEWSQPRFRNQVEEDAEDSGEADDEEKPEIHKPGQNSFSKSTNSSDVSAKSGAVTFSSQGRVNPFKVSASSKEPAMSMNSARSTNILDNMGKSSKKSTALSRTTNNEKSPIIKPLIPKPKPKQASAASYFQKRNSQTNKTEEVKEENLKNVLSETPAICPPQNTENQRPKTGFQMWLEENRSNILSDNPDFSDEADIIKEGMIRFRVLSTEERKVWANKAKGETASEGTEAKKRKRVVDESDETENQEEKAKENLNLSKKQKPLDFSTNQKLSAFAFKQE
# notes: AND-1, human; Only the trimer of SepB domains is ordered in the map; source: Hi5 insect cells (baculovirus), purified (Flag M2, MonoQ, Superdex 200)
# How the values were obtained:
# [1] = target: the molecule itself; test: cryo-EM structure; replisome reconstituted on fork DNA with AMP-PNP, isolated on a glycerol gradient with glutaraldehyde and BS3; 3.2 Å overall; a sample without CLASPIN solved at 3.4 Å
# [2] = target: T1, human CDC45‐MCM‐GINS (CMG) helicase (human, UniProt P49736 1-904; P25205 1-808; P33991 1-863; P33992 1-734; Q14566 1-821; P33993 …); test: co-sedimentation; native glycerol gradient without cross-linker (40 mM HEPES-NaOH pH 7.5, 150 mM NaOAc, 0.5 mM TCEP, 500 µM AMP-PNP, 3 mM Mg(OAc)2), 200,000 g, 4°C, 2 h; 100 nM CMG pre-incubated with fork DNA, 1.5-fold molar excess of the other proteins; fractions on silver-stained SDS-PAGE; settings: both partners purified
# T1 construct: MCM2, human; MCM3, human; the construct lacks the 45 additional N-terminal amino acids of the longer isoform used in PDB 6XTX; MCM4, human; MCM5, human; MCM6, human; MCM7, human; CDC45, human; PSF1 (GINS subunit), human; PSF2 (GINS subunit), human; PSF3 (GINS subunit), human; SLD5 (GINS subunit), human; also called hsCMG; source: Hi5 insect cells co-infected with baculoviruses for MCM2-7, GINS …
binder,measurement,setting,value
B1,stoichiometry N,[1],3
same,binding result,[2],binds
